# Results reported in patent US20110059095A1.
# Like-named read-outs stand apart in the source and are kept apart here.
# Assays:
# monkey PAR-2 (monkey) = test: cell-based or functional assay
# [1] = molecular target: full length mouse PAR-2 (mouse) (UniProt P55086); test: cell-based or functional assay
# [2] = molecular target: full length human PAR-2 (human) (UniProt P55085); test: cell-based or functional assay
# [3] = molecular target: C-terminal biotinylated human PAR-2 14-mer peptide SEQ ID NO:886 (Asp-43 to Ala) (human); test: BLI Exp2
# Chain of C-terminal biotinylated human PAR-2 14-mer peptide SEQ ID NO:886 (Asp-43 to Ala) (human) (peptide, as listed by the source): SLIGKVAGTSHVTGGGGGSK
# [4] = molecular target: C-terminal biotinylated human PAR-2 14-mer peptide SEQ ID NO:884 (…, wild-type) (human); test: BLI Exp2
# Chain of C-terminal biotinylated human PAR-2 14-mer peptide SEQ ID NO:884 (…, wild-type) (human) (peptide, as listed by the source): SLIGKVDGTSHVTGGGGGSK
# [5] = molecular target: C-terminal biotinylated human PAR-2 14-mer peptide SEQ ID NO:885 (Val-42 to Ala) (human); test: BLI Exp2
# Chain of C-terminal biotinylated human PAR-2 14-mer peptide SEQ ID NO:885 (Val-42 to Ala) (human) (peptide, as listed by the source): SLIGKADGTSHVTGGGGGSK
# [6] = molecular target: C-terminal biotinylated human PAR-2 14-mer peptide SEQ ID NO:887 (Val-42 and Asp-43 to Ala) (human); test: BLI Exp2
# Chain of C-terminal biotinylated human PAR-2 14-mer peptide SEQ ID NO:887 (Val-42 and Asp-43 to Ala) (human) (peptide, as listed by the source): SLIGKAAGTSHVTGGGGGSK
# [7] = molecular target: T1, Peptide B (human PAR-2), N-terminal biotinylated (Human); test: SPR, peptide immobilized
# T1 sequence (peptide, N-terminal biotin via G4S linker): GGGGSSLIGKVDGTSHVTG
# [8] = molecular target: T2, Peptide B (human PAR-2), C-terminal biotinylated (Human); test: SPR, peptide immobilized
# T2 sequence (peptide, C-terminal biotin via G4S linker): SLIGKVDGTSHVTGGGGGS
# [9] = molecular target: T2, Peptide B (human PAR-2), C-terminal biotinylated (Human); test: SPR, peptide immobilized; remark: listed apart in the source
# [10] = molecular target: Peptide B (human PAR-2), unbiotinylated (Human); test: SPR, antibody captured
# [11] = molecular target: full length human PAR-2 (human) (UniProt P55085); test: cell ELISA, 10 ug/ml antibody
# Chain of full length human PAR-2 (human) (P55085 26-397 G138A limits assumed): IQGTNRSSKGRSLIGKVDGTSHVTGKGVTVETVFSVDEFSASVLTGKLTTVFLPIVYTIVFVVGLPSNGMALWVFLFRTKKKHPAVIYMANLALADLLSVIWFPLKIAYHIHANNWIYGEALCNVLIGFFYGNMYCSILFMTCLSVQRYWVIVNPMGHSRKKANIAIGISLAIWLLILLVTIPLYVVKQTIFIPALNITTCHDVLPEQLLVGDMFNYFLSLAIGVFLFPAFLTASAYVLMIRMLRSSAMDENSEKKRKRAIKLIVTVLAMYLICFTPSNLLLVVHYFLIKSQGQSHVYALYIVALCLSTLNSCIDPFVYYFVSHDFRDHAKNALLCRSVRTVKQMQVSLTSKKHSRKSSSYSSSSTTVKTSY
# Chain of Human Kallikrein 5 (Q9Y337 67-293 limits assumed): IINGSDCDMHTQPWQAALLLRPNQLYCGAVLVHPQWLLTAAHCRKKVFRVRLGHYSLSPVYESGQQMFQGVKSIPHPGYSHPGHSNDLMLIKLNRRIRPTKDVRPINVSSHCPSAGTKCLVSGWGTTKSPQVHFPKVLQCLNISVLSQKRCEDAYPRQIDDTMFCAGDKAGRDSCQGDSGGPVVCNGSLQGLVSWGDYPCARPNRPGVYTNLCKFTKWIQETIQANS
# Chain of full length mouse PAR-2 (mouse) (P55086 other isoform, or with tags, fused parts or gaps limits assumed): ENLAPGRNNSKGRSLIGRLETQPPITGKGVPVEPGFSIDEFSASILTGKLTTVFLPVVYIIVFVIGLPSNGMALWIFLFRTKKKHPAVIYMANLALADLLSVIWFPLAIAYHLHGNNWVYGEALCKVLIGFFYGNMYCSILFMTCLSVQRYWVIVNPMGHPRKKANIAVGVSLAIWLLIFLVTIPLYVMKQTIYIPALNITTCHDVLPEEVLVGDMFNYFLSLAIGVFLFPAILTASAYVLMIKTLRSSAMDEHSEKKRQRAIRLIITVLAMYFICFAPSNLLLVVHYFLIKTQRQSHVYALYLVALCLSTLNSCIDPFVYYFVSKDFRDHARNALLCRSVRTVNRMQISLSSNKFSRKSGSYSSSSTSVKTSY
substance,measurement,setting,value
Bovine Factor Xa (from UniProt P00743 41-492) (enzyme),"EC50 of activator, NF-kB-luciferase",monkey PAR-2 (monkey),58.2 nM
same,"EC50 of activator, NF-kB-luciferase",[1],46.3 nM
same,"EC50 of activator, NF-kB-luciferase",[2],27.2 nM
"Comparator 2, antibody having the heavy and light chain variable regions of the antibody referred to as Sam-11 (Molino et al. 1998)",% Rel Binding,[3],88%
same,% Rel T1/2,[3],27%
same,% Rel Binding,[4],100%
same,% Rel T1/2,[4],100%
same,% Rel Binding,[5],120%
same,% Rel T1/2,[5],159%
same,% Rel Binding,[6],87%
same,% Rel T1/2,[6],27%
Human Factor Xa (from UniProt P00742 41-488) (enzyme),"EC50 of activator, NF-kB-luciferase",[1],78.7 nM
same,"EC50 of activator, NF-kB-luciferase",[2],46.3 nM
Human Kallikrein 5 (from UniProt Q9Y337 67-293) (enzyme),"EC50 of activator, NF-kB-luciferase",monkey PAR-2 (monkey),16.8 nM
same,"EC50 of activator, NF-kB-luciferase",[2],28 nM
Human Pancreatic Trypsin (enzyme),"EC50 of activator, NF-kB-luciferase",monkey PAR-2 (monkey),2.4 nM
Non-Specific Control (non-PAR-2 specific control antibody),"IC50, calcium mobilization FLIPR, 100 nM Trypsin",[2],> 1000 nM
"Sam11, commercially available mouse monoclonal antibody that binds human PAR-2 (Santa Cruz Biotechnology)",Kd,[7],0.279 nM
same,T1/2,[7],32 min
same,Kd,[8],0.99 nM
same,T1/2,[8],19 min
same,Kd,[9],0.935 nM
same,T1/2,[9],14 min
same,Kd,[10],149 nM
same,T1/2,[10],0.1 min
same,A450 ratio (293/D9/hPAR-2rec to 293/D9 cells),[11],1.49
Tryptase (Table 22) (enzyme),"EC50 of activator, NF-kB-luciferase",[2],61.1 nM
